Reference: article PMC3891018 (Scientific Reports, 2014)

Molecular target: H-ficolin (human, UniProt O75636 24-299)
Assay: SPR

Sequence of H-ficolin (O75636 24-299): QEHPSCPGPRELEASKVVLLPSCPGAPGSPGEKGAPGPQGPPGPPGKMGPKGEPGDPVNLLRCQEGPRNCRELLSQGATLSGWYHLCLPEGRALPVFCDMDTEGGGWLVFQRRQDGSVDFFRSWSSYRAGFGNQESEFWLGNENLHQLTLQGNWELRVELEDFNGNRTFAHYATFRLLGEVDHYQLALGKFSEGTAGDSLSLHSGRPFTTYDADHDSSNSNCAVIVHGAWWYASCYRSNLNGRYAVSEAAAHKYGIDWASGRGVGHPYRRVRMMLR

Question: For DTLMISRTPEVTCVV [nIgG peptide DTLMISRTPEVTCVV 278-292 (peptide 1)], which Kd is on record?
Answer: ~1000 nM

Question: With LTCLVKGFYPSDI [nIgG peptide LTCLVKGFYPSDI 394-406 (peptide 6)] as the binder, how does the Kd read?
Answer: ~1000 nM
